Results reported in patent US20260102487A1 (Amgen, published 2026).
Numbering of substitutions follows the chain as printed.

T1: human IL-2Rβγ receptor on primary human T-cells and NK-cells (PBMCs) (human, UniProt P14784 27-551; P31785 23-369)
T1 construct: Endogenous receptor on primary cells; also called dimeric IL-2Rβγ receptor complex
T1 sequence 1: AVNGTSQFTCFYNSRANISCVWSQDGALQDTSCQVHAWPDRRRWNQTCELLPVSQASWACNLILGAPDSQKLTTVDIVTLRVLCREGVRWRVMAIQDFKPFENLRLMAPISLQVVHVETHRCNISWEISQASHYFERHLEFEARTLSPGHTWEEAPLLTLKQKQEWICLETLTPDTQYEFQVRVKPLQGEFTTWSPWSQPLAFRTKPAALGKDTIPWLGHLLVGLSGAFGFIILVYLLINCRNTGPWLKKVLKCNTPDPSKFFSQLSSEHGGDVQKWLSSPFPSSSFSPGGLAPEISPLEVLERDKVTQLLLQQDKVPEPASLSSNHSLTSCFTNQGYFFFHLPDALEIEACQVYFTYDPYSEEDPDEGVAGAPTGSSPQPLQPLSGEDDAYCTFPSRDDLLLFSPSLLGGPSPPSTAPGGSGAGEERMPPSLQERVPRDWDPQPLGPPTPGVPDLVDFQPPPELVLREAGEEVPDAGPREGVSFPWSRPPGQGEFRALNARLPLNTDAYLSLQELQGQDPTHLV
T1 sequence 2: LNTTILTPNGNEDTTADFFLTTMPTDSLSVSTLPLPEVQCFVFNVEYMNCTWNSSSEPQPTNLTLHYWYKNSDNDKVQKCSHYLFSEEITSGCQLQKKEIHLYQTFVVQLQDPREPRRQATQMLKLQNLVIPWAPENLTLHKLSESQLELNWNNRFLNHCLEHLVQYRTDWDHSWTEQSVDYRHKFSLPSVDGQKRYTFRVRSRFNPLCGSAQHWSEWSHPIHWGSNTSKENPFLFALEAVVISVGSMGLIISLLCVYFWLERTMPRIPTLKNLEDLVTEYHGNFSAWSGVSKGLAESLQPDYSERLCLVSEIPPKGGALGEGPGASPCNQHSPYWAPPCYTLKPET

T2: IL-4R (Sino Biological) (UniProt P24394 26-232)
T2 construct: also called IL-4Ra
T2 sequence (looked up): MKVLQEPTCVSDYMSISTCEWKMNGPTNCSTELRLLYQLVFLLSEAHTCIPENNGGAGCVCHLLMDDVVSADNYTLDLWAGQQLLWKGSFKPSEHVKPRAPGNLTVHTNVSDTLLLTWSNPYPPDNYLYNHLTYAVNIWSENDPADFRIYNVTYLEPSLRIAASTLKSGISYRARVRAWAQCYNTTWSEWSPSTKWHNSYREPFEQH

B1: BsAb-2 (IL2RB_F09G**IL2RG_F16B) (bispecific antibody, human IgG4, V domains shown)
V domain 1: QVQLQESGPGLVKSSETLSLTCTVSGGSISSSDWWSWVRQPPGKGLEWIGEIDHSGSTNYNPSLMSRVTISVDKSKNQFSLKLSSVTAADTAVYFCARGSWELTDAFDIRGQGTLVTVSS
V domain 2: QVQLVESGGGLVKPGGSLRLSCAASGFTFSDYYMSWIRQAPGKGLEWVSYISSSGSTIYYADSVKGRFTISRDNAKNSLYLQMNSLRAEDTAVYYCARGDAVSITGDYRGQGTLVTVSS
notes: Heavy chain-only bispecific on silenced, stabilised human IgG4 Fc, knobs-into-holes, no light chains; not shown: C-terminal His-tag on the knob chain
B2: BsAb-6 (IL2RB_F18E**IL2RG_F16A) (bispecific antibody, human IgG4, V domains shown)
V domain 1: QVQLVESGGGVVQPGRSLRLSCAASGFTFSSYGMHWVRQAPGKEREWVAVISYDGSNKYYTDSVKGRFTISRDNSKNTLYLEMNSLRAEDTAVYYCARDLDYDVLTGDPVGGFDIWGQGTLVTVSS
V domain 2: B1 V domain 2 with Y50S, S56D, K65Q, I70L, K76E, Y80F
notes: as for B1
B3: BsAb-4 (IL2RB_F09G**IL2RG_F18A) (bispecific antibody, human IgG4, V domains shown)
V domain 1: B1 V domain 1
V domain 2: QVQLVESGGDLVKPGGSLRLSCAASGFTFSDYYMSWLRQAPGKELEWVSHISSSGTTTYYADSVEGRFTITRDNAKNSLYLQMNSLRAEDTAVYYCARGAAVAPGFDSRGQGTLVTVSS
notes: as for B1
B4: BsAb-3 (IL2RB_F09G**IL2RG_F16C) (bispecific antibody, human IgG4, V domains shown)
V domain 1: B1 V domain 1
V domain 2: B1 V domain 2 with S30N, Y50H, I70V, K76N, N84H
notes: as for B1
B5: BsAb-5 (IL2RB_F09K**IL2RG_F16B) (bispecific antibody, human IgG4, V domains shown)
V domain 1: B1 V domain 1 with G8S, S14P, D33N, D53S, M65K, K82R, A97G
V domain 2: B1 V domain 2
notes: as for B1
B6: BsAb-1 (IL2RB_F09C**IL2RG_F16A) (bispecific antibody, human IgG4, V domains shown)
V domain 1: B1 V domain 1 with S14P, E16G, T23A, A97G, T104S
V domain 2: B1 V domain 2 with Y50S, S56D, K65Q, I70L, K76E, Y80F
notes: as for B1

Legend:
[1] = biological target: T1, human IL-2Rβγ receptor on primary human …; test: flow cytometry cell binding on human CD8+ T-cells (PBMC), gMFI as fold over secondary antibody only
Protocol: All washes and dilutions of cells, antibodies, and reagents were performed using flow buffer (1X PBS, 1% BSA, 0.1% NaN3, pH 7.4). Staining was performed in a round-bottom 96-well plate (Corning) seeded at 100,000 cells/well, and all incubations were performed at 4° C. or on ice. […] The cells were washed twice with 200 μL flow buffer. The cells were then incubated for 30 minutes with detection antibody (Goat F(ab′)2 Anti-Human IgG-PE, Southern Biotech) at 0.625 μg/mL in flow buffer. Following 2 more washes, the cells were resuspended in a final volume of 150 μL of flow buffer. The cells were analyzed on a BD FACSCelesta or a Guava easyCyte 8-HT flow cytometer. At least 3000 events were collected, and PE geometric mean fluorescence intensity was plotted as a fold over background (cells incubated with secondary detection antibody only). In some secondary screens involving human or cynomolgus PBMCs, an additional CD4 antibody (BioLegend) and/or CD8 antibody (BioLegend) was included to further characterize cell binding.

IL-4R (Sino Biological) = biological target: T2, IL-4R (Sino Biological); test: Octet (BLI) off-rate, antibody captured on AHC sensors
Protocol: All off-rate measurements were performed on an Octet Qk384 instrument (ForteBio), in 96-well microplates at 25° C. using anti-human IgG Fc capture (AHC, 18-5005) sensors with a shake speed of 1000 rpm. For off-rate determination, the antibodies/antibody fragments were loaded on the AHC sensors at 5 μg/mL. Following a short baseline in kinetics buffer (0.02% Tween20, 0.1% BSA, 0.05% sodium azide, 1X PBS). Offrate measurements were done for the following: human IL-2Rβ (AcroBiosystems), human IL-2Ry (Sino Biological), cynomolgus IL-2RP (Sino Biological), cynomolgus IL-2Rγ (expressed and purified in house using ExpiCHO expression system followed by Ni-NTA His-tag purification), mouse IL-2Rγ (Sino Biological), mouse IL-2Rβ (Sino Biological), human IL-2Rα (Sino Biological), IL-4R (Sino Biological), IL-7R (Sino Biological), IL-9R (R&D Systems) and IL-21R (Sino Biological). The following antibodies were used as positive controls to verify target binding and reagent quality: anti-human IL-9R (R&D Systems), anti-human IL-21R (R&D Systems), anti-human IL-7R (R&D Systems) and anti-human IL-4Ra (R&D Systems). The loaded sensors were then submerged in wells containing antigen at 100 nM concentration for association step. Dissociation was monitored in kinetics buffer. The capture surfaces were regenerated for 60 s. ForteBio data analysis software was used to fit the data to a 1:1 binding model to extract an association rate and dissociation rate.

| Binder | EC50 (read off the curve) [1] [nM] | binding result (IL-4R (Sino Biological)) |
| --- | --- | --- |
| B1 | ~10 | no binding (tested: antigen at 100 nM) |
| B2 | ~5 | no binding (tested: antigen at 100 nM) |
| B3 | – | no binding (tested: antigen at 100 nM) |
| B4 | ~5 | no binding (tested: antigen at 100 nM) |
| B5 | – | no binding (tested: antigen at 100 nM) |
| B6 | – | no binding (tested: antigen at 100 nM) |
